Positions count from the first letter of the chain named.

The target of experiment [1] is T1, wildtype feline IL-31 protein (Feline_IL31_wildtype) (feline).
T1 construct: Full length feline IL-31 with C-terminal His tag, secreted from ExpiCHO cells; also called fIL-31
T1 chain: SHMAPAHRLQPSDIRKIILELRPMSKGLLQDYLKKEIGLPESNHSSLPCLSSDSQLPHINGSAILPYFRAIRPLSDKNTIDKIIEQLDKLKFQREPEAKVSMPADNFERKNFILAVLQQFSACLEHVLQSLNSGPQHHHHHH
The experiment is described as follows: SPR (Biacore), IL-31 on chip, 1:1 fit. The method, then:
The affinity with which candidate mAbs bind canine and feline IL-31 was determined using surface plasmon resonance (SPR) on a Biacore system (Biocore Life Sciences (GE Healthcare), Uppsala, Sweden). To avoid affinity differences associated with differential surface preparation that can occur when immobilizing antibodies to surfaces; a strategy was employed where IL-31 was directly conjugated to the surface. Immobilization was obtained by amine coupling 5 μg/mL IL-31 using N-hydroxysuccinimide (NHS)/1-Ethyl-3-(3-dimethylaminopropyl) carbodiimide (EDC) chemistry. Chips were quenched with ethanolamine and the affinity with which all candidate mAbs bound to the immobilized IL-31 was evaluated. All curves were fit to a 1:1 model. […] Results for affinity measurements are described herein.

Experiment [2] concerns the target T1, wildtype feline IL-31 protein …. The experiment in a line: cell-based or functional assay.
Experiment [3] has as its target T2, canine IL-31 protein (Canine_IL31) (canine).
T2 chain: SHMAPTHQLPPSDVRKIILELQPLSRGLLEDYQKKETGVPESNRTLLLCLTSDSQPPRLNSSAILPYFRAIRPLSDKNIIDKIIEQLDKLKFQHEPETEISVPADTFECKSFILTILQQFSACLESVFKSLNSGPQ
The experiment is described as follows: SPR (Biacore), IL-31 on chip, 1:1 fit. On the technique in general: SPR reads the build-up and loss of mass on a sensor chip optically.

Experiment [4] deals with T1, wildtype feline IL-31 protein …. The experiment in a line: cell-based or functional assay.
Experiment [5] has the same target. The experiment in a line: Biacore, feline IL-31 chip, mAb 100 nM, share of points within parent mean +/-3 SD. More on the design: key: % of mutant data points within parent mAb mean ±3 SD. From the text:
The region of an antibody responsible for antigen recognition represents the paratope. A paratope is created by a combination of amino acids in the complementarity determining regions (CDRs) of both the heavy and light chain variable regions. The binding between antibody and antigen is often mediated by side chains of CDR residues with side chains or carbohydrate moieties of the antigen. To help define critical side chains involved in antibody recognition alanine scanning mutagenesis was performed on each CDR residue in both the heavy and light chain. These mutants were then individually tested for the ability to bind feline IL-31 using the biacore and evaluated for inhibition of IL-31-mediated signaling in the FCWF-4 cell based assay.
The mean response unit of four replicates of the parent mAb+/−3 standard deviations was used to generate parameters to define a threshold of response units comprising both the on- and off-rates antibody binding (FIG. 22). The percentage of data points for each mutant fell within this threshold was then used to define a “% similarity score” (FIG. 23).

Experiment [6] has as its target T3, mutant feline IL-31 15H05 protein (Feline_IL31_15H05_mutant) (feline).
T3 sequence: T1 chain with P103A, D105A
The experiment in a line: indirect ELISA, IL-31 protein coated. Background: In an ELISA, binding on a coated surface is turned into a signal by an enzyme label.

Experiment [7] deals with T4, equine IL-31 protein (Equine_IL31) (equine).
T4 construct: Recombinant equine IL-31
T4 chain: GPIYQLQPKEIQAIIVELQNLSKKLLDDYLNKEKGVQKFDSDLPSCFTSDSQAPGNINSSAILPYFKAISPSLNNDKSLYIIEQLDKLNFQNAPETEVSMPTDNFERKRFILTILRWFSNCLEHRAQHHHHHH
The experiment in a line: SPR (Biacore), IL-31 surface, single antibody concentration. The method, then:
For the indirect ELISA method, antibody binding to wildtype and feline IL-31 15H05 mutant proteins was assessed. All nine canine monoclonal antibodies (ZIL1, ZIL8, ZIL8, ZIL11, ZIL69, ZIL94, ZIL154, ZIL159, and ZIL171) were capable of binding to wildtype feline IL-31 and binding was impacted by mutations in the mAb 15H05 epitope region confirming the correct binding phenotype determined during the initial screening used to identify them. In comparison, the 11E12 antibody bound to the wild-type feline IL-31 and its binding was not impacted by the mutations in the 15H05 epitope region as evidenced by the data in FIG. 4. To confirm binding, biacore analysis was performed using canine, feline, equine, human, feline 15H05 mutant, and feline 11E12 mutant IL-31 proteins as surfaces and a single test concentration of antibody. Similar to ELISA observations, all antibodies tested bound to wildtype feline IL-31. In agreement with the data described above in this section, mouse antibodies 11E12 and 15H05 both bound to canine and feline IL-31 surfaces. Three additional antibodies where shown to have this dual binding property, ZIL69 (partial canine binding), ZIL94, and ZIL159. From this group of nine fully canine antibodies, only ZIL1 and ZIL9 cross-reacted with equine IL-31. Of note, antibody 15H05 was the only one of all assayed herein that bound to canine, feline, and equine IL-31 indicating some level of epitope conservation across the three species. In contrast, none of the antibodies described herein bound to human IL-31. Additional biacore surfaces were used to verify ELISA observations showing differential binding of antibodies to wildtype feline IL-31 and two proteins with mutations in the 15H05 (15H05 mutant) or 11E12 (11E12 mutant) epitopes.

In experiment [8] the target is T2, canine IL-31 protein (Canine_IL31). The experiment in a line: cell-based or functional assay.

B1: mouse:canine 11E12 chimera (antibody)
heavy: QVQLQQSGAELVKPGASVKLSCKASGYTFKYYDINWVRQRPEQGLEWIGWIFPGDGGTKYNETFKGKATLTTDKSSSTAYMQLSRLTSEDSAVYFCARGGTSVIRDAMDYWGQGTSVTVSSASTTAPSVFPLAPSCGSTSGSTVALACLVSGYFPEPVTVSWNSGSLTSGVHTFPSVLQSSGLYSLSSMVTVPSSRWPSETFTCNVAHPASKTKVDKPVPKRENGRVPRPPDCPKCPAPEMLGGPSVFIFPPKPKDTLLIARTPEVTCVVVDLDPEDPEVQISWFVDGKQMQTAKTQPREEQFNGTYRVVSVLPIGHQDWLKGKQFTCKVNNKALPSPIERTISKARGQAHQPSVYVLPPSREELSKNTVSLTCLIKDFFPPDIDVEWQSNGQQEPESKYRTTPPQLDEDGSYFLYSKLSVDKSRWQRGDTFICAVMHEALHNHYTQESLSHSPGK
light: DIVLTQSPASLAVSLGQRATISCRASESVDNYGISFMHWYQQKPGQPPKLLIYRASNLESGIPARFSGSGSRTDFTLTINPVETDDVATYYCQQSNKDPLTFGAGTKLELKRNDAQPAVYLFQPSPDQLHTGSASVVCLLNSFYPKDINVKWKVDGVIQDTGIQESVTEQDKDSTYSLSSTLTMSSTEYLSHELYSCEITHKSLPSTLIKSFQRSEC
notes: Mouse variable regions on canine IgG constant regions; made in HEK 293 cells; also called canine chimeric form of 11E12
In experiment [1], B1 registered a Kd of 0.248 nM, a koff of 0.000108 s⁻¹ and a kon of 437000 M⁻¹ s⁻¹. Further, the “IC50, inhibition of feline IL-31-induced STAT3 phosphorylation, feline FCWF4 cells” value in experiment [2] is 1.15 µg/mL. In experiment [3], this molecule registered a Kd of 0.826 pM, a koff of 6.55e-07 s⁻¹ and a kon of 793000 M⁻¹ s⁻¹.

B2: Feline 11E12 1.1 FW2 (antibody, V domains shown)
VH: QVLLVQSGAEVKKPGASVKIFCKASGYSFTYYDINWLRQAPEQGLEWMGWIFPGDGGTKYNETFKGRLTLTADTSTNTVYMELSSLRSADTAMYYCARGGTSVIRDAMDYWGQGALVTVSS
VL: EIQMTQSPSSLSASPGDRVTITCRASESVDNYGISFMHWYQQKPGQPPKLLIYRASNLESGVPSRFSGSGSGTDFTLTISSLEPEDAATYYCQQSNKDPLTFGQGT
notes: Feline 11E12 VL1 with the mouse FW2; Feline heavy and kappa constant regions
In experiment [1], B2 came in with a Kd of 0.75 nM, a koff of 0.000639 s⁻¹ and a kon of 852000 M⁻¹ s⁻¹. Also, in experiment [2], the “IC50, inhibition of feline IL-31-induced STAT3 phosphorylation, canine DH82 cells” value was 5.66 µg/mL and the “IC50, inhibition of feline IL-31-induced STAT3 phosphorylation, feline FCWF4 cells” value worked out at 4.38 µg/mL. Further, in experiment [3], the koff came out at 0.000318 s⁻¹ and the kon turned out to be 45200 M⁻¹ s⁻¹.

B3: A28 (antibody, V domains shown)
VH: QVLLVQSGAEVRTPGASVKIFCKASGYSFTSYTIHWLRQAPAQGLEWMGNINPTSGYTENNQRFKDRLTLTADTSTNTAYMELSSLRSADTAMYYCARWGFKYDGEWSFDVWGAGTTVTVSS
VL: EIQMTQSPSSLSASPGDRVTITCRASQGISIWLSWYQQKPGNIPKVLINKASNLHIGVPSRFSGSGSGTDFTLTISSLEPEDAATYYCLQSQTYPLAFGGGTKLEIK
Turning to B3, in experiment [4], the “% Inhibition Relative to Parent (pSTAT, FCWF-4 cells)” value worked out at 59.7%. Also, in experiment [5], the “Binding Similarity score” value turned out to be 42.2.

B4: ZIL9 (recombinant fully canine antibody) (antibody, V domains shown)
VH: EVQLVESGGDLVKPPGSLRLSCVASGFTFSSYDMTWVRQAPGKGLQWVADVNSGGTGTAYAVAVKGRFTISRDNAKKTLYLQMNSLRAEDTAVYYCAKLGVRDGLSVWGQGTLVTVSS
VL: SSVLTQPPSVSVSLGQTATISCSGESLNEYYTQWFQQKAGQAPVLVIYRDTERPSGIPDRFSGSSSGNTHTLTISGARAEDEADYYCESAVDTGTLVFGGGTHLAVLR
In experiment [6], B4 had an ELISA OD of 0.73 OD.

B5: ZIL171 (recombinant fully canine antibody) (antibody, V domains shown)
VH: EVQLVESGGDLVKPAGSLRLSCVASGFTFRTYVMNWVRQAPGKGLQWVASINGGGSSPTYADAVRGRFTVSRDNAQNSLFLQMNSLRAEDTAIYFCVVSMVGPFDYWGHGTLVTVSS
VL: B4 VL with E25K, N28S, E29Y, T32A, R49K, D92S, T93S, G94D, L96I, A105T
notes: also called CAN-ZIL171
B5: the binding result in experiment [7] is on record as “no binding”.

B6: ZTS-927 (antibody)
heavy: QVLLVQSGAEVRTPGASVKIFCKASGYSFTSYTIHWLRQAPAQGLEWMGNINPTSGYTENNQRFKDRLTLTADTSTNTAYMELSSLRSADTAMYYCARWGFKYDGEWSFDVWGAGTTVTVSSASTTAPSVFPLAPSCGTTSGATVALACLVLGYFPEPVTVSWNSGALTSGVHTFPAVLQASGLYSLSSMVTVPSSRWLSDTFTCNVAHPPSNTKVDKTVRKTDHPPGPKPCDCPKCPPPEMLGGPSIFIFPPKPKDTLSISRTPEVTCLVVDLGPDDSDVQITWFVDNTQVYTAKTSPREEQFNSTYRVVSVLPILHQDWLKGKEFKCKVNSKSLPSPIERTISKAKGQPHEPQVYVLPPAQEELSRNKVSVTCLIKSFHPPDIAVEWEITGQPEPENNYRTTPPQLDSDGTYFVYSKLSVDRSHWQRGNTYTCSVSHEALHSHHTQKSLTQSPGK
light: EIQMTQSPSSLSASPGDRVTITCRASQGISIWLSWYQQKPGNIPKVLINKASNLHIGVPSRFSGSGSGTDFTLTISSLEPEDAATYYCLQSQTYPLTFGGGTKLEIKRSDAQPSVFLFQPSLDELHTGSASIVCILNDFYPKEVNVKWKVDGVVQNKGIQESTTEQNSKDSTYSLSSTLTMSSTEYQSHEKFSCEVTHKSLASTLVKSFQRSECQRE
notes: Felinized 15H05 from a single GS plasmid
Regarding B6, in experiment [1], the Kd was found to be 0.614 nM, the dissociation rate constant (koff) came to 2.3e-05 s⁻¹ and the kon is 37400 M⁻¹ s⁻¹. Further, in experiment [8], the “IC50, inhibition of canine IL-31-induced STAT3 phosphorylation, canine DH82 cells” value was 23.2 µg/mL and the “IC50, inhibition of canine IL-31-induced STAT3 phosphorylation, feline FCWF4 cells” value came to 39.6 µg/mL. Besides, in experiment [2], the “IC50, inhibition of feline IL-31-induced STAT3 phosphorylation, canine DH82 cells” value came out at 1.57 µg/mL and the “IC50, inhibition of feline IL-31-induced STAT3 phosphorylation, feline FCWF4 cells” value is 5.26 µg/mL.

B7: ZIL1 (recombinant fully canine antibody) (antibody, V domains shown)
VH: EVQLVESGGDLVKPGGSLRLSCVASGFTFSSYGMSWVRQAPGKGLQWVAHINSGGSSTYYADAVKGRFTISRDNAKNTLYLQMNSLRAEDTAVYYCVEVYTTLAAFWTDNFDYWGQGTLVTVSS
VL: QSVLTQPTSVSGSLGQRVTISCSGSTNNIGILAATWYQQLPGKAPKVLVYSDGNRPSGVPDRFSGSKSGNSATLTITGLQAEDEADYYCQSFDTTLDAYVFGSGTQLTVLR
Molecule B7 returned an ELISA OD in experiment [6] of 0.92 OD.

B8: ZIL69 (recombinant fully canine antibody) (antibody, V domains shown)
VH: EVQLVESGGDLVKPAGSLRLSCVASGFTFSSYAMKWVRQAPGKGLQWVATINNDGTRTGYADAVRGRFTISKDNAKNTLYLQMDSLRADDTAVYYCTKGNAESGCTGDHCPPYWGQGTLVTVSS
VL: SSVLTQPPSVSVSLGQTATISCSGESLNKYYAQWFQQKAGQAPVLVIYKDTERPSGIPDRFSGSSAGNTHTLTISGARAEDEADYYCESAVSSETNVFGSGTQLTVLR
notes: also called CAN-ZIL69
For the molecule B8, in experiment [7], the binding result is “no binding”. In experiment [6], this molecule came in with an ELISA OD of 0.92 OD.

What is called Kd is a measure of binding affinity in units of concentration. Usually koff stands for the rate constant with which the complex falls apart. The kon is the rate constant with which the complex forms.

The record behind these values is patent US20250136677A1 (ZOETIS SERVICES, published 2025).
